According to patent US20250333481A1:

Target: chimeric receptor consisting of extracellular domain of BDNF receptor TrkB and transmembrane domain and cytoplasmic domain of thrombopoietin receptor c-Mpl
Assay: cell-based or functional assay

Work on “recombinant wild-type hBDNF (Abcam) (from UniProt P23560 129-247) (ligand)” yielded an EC50, cell proliferation of BaF/TrkB·c-Mpl chimera cells (MTS, absorbance at 490 nM) of 1.19 nM.
